# Source: PMC12207366, “Protonated Glutamate and Aspartate Side Chains Can Recognize Phosphodiester Groups via Strong and Short Hydrogen Bonds in Biomacromolecular Complexes” (Angewandte Chemie (International Ed. in English), 2025)
# Tests used:
# [1] = unstructured peptides; cited from earlier work
# [2] = biological target: Glu190 (UniProt position 190, EALVEEEKTGD); experiment: ITC; settings: 20 °C, 200 mM NaCl, 50 mM Tris (pH 8.5-7.5), 50 mM BisTris (pH 7.0-6.0) or 50 mM Na-acetate (pH 5.5-4.0), each with 1 mM beta-mercaptoethanol
# [3] = biological target: Glu218 (UniProt position 218, RALAEEKGLEF); experiment: ITC; settings: 20 °C, 200 mM NaCl, 50 mM Tris (pH 8.5-7.5), 50 mM BisTris (pH 7.0-6.0) or 50 mM Na-acetate (pH 5.5-4.0), each with 1 mM beta-mercaptoethanol
# [4] = c-di-GMP-bound protein (pKab of the thermodynamic cycle)
# [5] = ligand-free protein (pKaf of the thermodynamic cycle)
compound,measurement,setting,value
N[C@@H](CCC(=O)O)C(=O)O [glutamate],pKa of side chain carboxylate group,[1],~4.4
PilF GSPII-B domain (PilF159-302) Q190E (Thermus thermophilus; Q190E),pKa,[2]; [4],7.5
same,pKa,[2]; [5],6.3
PilF GSPII-B domain (PilF159-302) Q218E (Thermus thermophilus; Q218E),pKa,[3]; [4],7.1
same,pKa,[3]; [5],5.9
